This is an account of results in paper PMC9774438 (2022).

Experiment [1] deals with T1, Hm-AMP8 (synthetic construct).
T1 chain: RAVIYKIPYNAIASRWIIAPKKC
As to the kind of experiment: Celestine Blue B chlorinating activity assay (varying Cl-, uncompetitive inhibition).

The target of experiment [2] is T2, pept_1545 (synthetic construct).
T2 chain: FLIGKAIKRKFCLRSVWNA
Put plainly: Celestine Blue B chlorinating activity assay (varying Cl-, competitive inhibition).

For experiment [3], the target named is T1, Hm-AMP8. Put plainly: Celestine Blue B chlorinating activity assay (varying H2O2, uncompetitive inhibition).
The target of experiment [4] is T2, pept_1545. The description is as above.
The target in experiment [5] is T1, Hm-AMP8. Put plainly: Amplex Red peroxidase activity assay (varying H2O2, uncompetitive inhibition).
Experiment [6] has as its target T2, pept_1545. Described as above.
Experiment [7] concerns the target T1, Hm-AMP8. As to the kind of experiment: Amplex Red peroxidase activity assay (varying Amplex Red, mixed inhibition).
For experiment [8], the target named is T2, pept_1545. The experiment is described as above.

B1: Myeloperoxidase (protein)
chain: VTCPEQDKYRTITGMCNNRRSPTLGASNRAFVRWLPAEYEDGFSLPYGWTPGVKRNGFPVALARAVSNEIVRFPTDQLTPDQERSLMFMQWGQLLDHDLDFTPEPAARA
As for B1, the inhibitory constant (Ki) amounted to 420 nM with Hm-AMP8 [1]; 19.5 µM with pept_1545 [2]; 280 nM with Hm-AMP8 [3]; 10.8 µM with pept_1545 [4]; 1790 nM with Hm-AMP8 [5]; 52.8 µM in the experiment with pept_1545 [6]. In addition, the inhibition constant Ki is 1100 nM in the experiment with Hm-AMP8 [7] and 48.3 µM in the experiment with pept_1545 [8].
